What was measured:
[1] = molecular target: BST2 (WT BST2 expressor) (UniProt Q10589); test: co-immunoprecipitation (anti-BST2 Ab pull-down, Western blot densitometry); settings: HEK293T cells co-transfected with proviral construct and BST2 expressor; parent: 100
[2] = molecular target: short isoform of BST2, Q10589-2; test: co-immunoprecipitation (Western blot densitometry); settings: HEK293T cells co-transfected with proviral construct and expressor of the short isoform of BST2; parent: 100
short isoform of BST2, Q10589-2, sequence (Q10589 13-161): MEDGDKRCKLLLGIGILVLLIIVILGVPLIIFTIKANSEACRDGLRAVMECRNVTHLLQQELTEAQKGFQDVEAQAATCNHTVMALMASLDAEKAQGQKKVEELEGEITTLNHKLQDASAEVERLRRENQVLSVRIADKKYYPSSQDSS

Row | Substance | percent of parent (% BST2 binding (relative to WT)) [1] | percent of parent (% BST2 binding (relative to WT)) [2]
1 | HIV-1 NL4-3 Vpu, wildtype E28A; L33A | 24 | 18
2 | HIV-1 NL4-3 Vpu, wildtype A10L; A14L; A18L | 14 | 12
3 | HIV-1 NL4-3 Vpu, wildtype S52D; S56D | 130 | 111
4 | HIV-1 NL4-3 Vpu, wildtype E28A; L33A; E59K; L63F | 43 | 31
5 | HIV-1 NL4-3 Vpu, wildtype E59K; L63F | 139 | 144

— publication PMC5348903
